Data set [1] deals with T1, thrombin (alpha-thrombin) (Homo sapiens, UniProt P00734;P00734 P00734:315-363,P00734:364-622). Description: filter; 10 nM thrombin.
Data set [2] concerns the target prothrombin (Homo sapiens, UniProt P00734 P00734:44-622). The experiment in a line: filter; 50 nM prothrombin. The following applies: tags: Athens Research. The method, then:
Dot blot binding assays were performed throughout the selections to monitor the protein binding affinity of the pools. Trace ³²P-labeled RNA was combined with a dilution series of human Thrombin (1 nM-1000 nM) and incubated at room temperature for 30 minutes in 1×DPBS (w/ Ca²⁺ and Mg²⁺) (Gibco, Catalog #14040, Invitrogen, Carlsbad, Calif.) plus 0.1 mg/ml BSA in a final volume of 30 μl. The binding reactions were analyzed by nitrocellulose filtration using a Minifold I dot-blot, 96-well vacuum filtration manifold (Schleicher & Schuell, Keene, N.H.). A three-layer filtration medium was used, consisting (from top to bottom) of Protran nitrocellulose (Schleicher & Schuell, Keene, N.H.), Hybond-P nylon (Amersham Biosciences, Piscataway, N.J.) and GB002 gel blot paper (Schleicher & Schuell, Keene, N.H.). RNA that is bound to protein is captured on the nitrocellulose filter, whereas the non-protein bound RNA is captured on the nylon filter. The gel blot paper was included simply as a supporting medium for the other filters. Following filtration, the filter layers were separated, dried and exposed on a phosphor screen (Amersham Biosciences, Piscataway, N.J.) and quantified using a Storm 860 Phosphorimager® blot imaging system (Amersham Biosciences, Piscataway, N.J.).
Based on pool binding monitored throughout the selections as described above, Round 9 Pools from both Selection #2 and #3 were also cloned using a TOPO TA Cloning kit (Invitrogen, Carlsbad, Calif.) according to manufacturer's instructions, and sequenced. Of the 136 sequences obtained from Round 9 of both selections, 130 unique sequences were selected for assaying in a single-point dot blot screen against thrombin and prothrombin to test for selective binding to thrombin. Clones were ordered from IDT (Coralville, Iowa) at 25 μmole synthesis scale. Clone transcripts were 5′ end labeled with γ̅³²P ATP and spin purified with Centrisep columns (Princeton Separations, Adelphia, N.J.) to remove excess label. Trace amounts of labeled clone were incubated with +/−10 nM Thrombin (or +/−50 nM prothrombin) and 0.1 mg/ml BSA in a total volume of 30 μl 1×DPBS (w/ Ca²⁺ and Mg²⁺) (Gibco, Catalog #14040, Invitrogen, Carlsbad, Calif.) for 30 minutes. Post incubation, the binding reaction applied the dot-blot binding assay apparatus previously described.

The target of data set [3] is T1, thrombin (alpha-thrombin). Description: filter; DPBS Ca2+ Mg2+, 0.1 mg/ml BSA.

We go through 35 molecules from US20090221680, “Aptamers that bind thrombin with high affinity” (published 2009).

On to TCCTGTCGATCCCTACGGGTAGTGTTGGTTTGGGTGGCTGAGGATCGATC (ssDNA) [AMX(399)_B9], for which the binding signal in data set [1] was 14.7 % bound; in data set [2] it was 14.3 % bound.
As to TCCCGAGCGATCGGGGTGGTTTTTTGGGAGTGGGTGGCTGAGGATCGATC (ssDNA) [AMX(399)_C7], the values for the binding signal in data set [1] and in data set [2] were 6.8 % bound and 6.94 % bound, respectively.
Broadly, the Kd is the free concentration of one partner at which half of the binding sites on the other are occupied at equilibrium, for simple one-to-one binding. Read a high Kd as a looser complex. Regarding TCCCGGGTGGTTATCTTCTCAGGGATGGTGTGGGTGGCTGAGGATCGATC (ssDNA) [AMX(395)_C1], in data set [3], the Kd is 7.48 nM. This lies in the single-digit nanomolar range.
TCCCGATCTATCCGGGGTACATTTGTGGTTTGGGTGGCTGAGGATCGATC (ssDNA) [AMX(399)_C12]: the binding signal in data set [1] is 18.7 % bound; in data set [2], 17.2 % bound.
On to TCTCGATCGGACGTGGTGGGTTACTGGCTTGGGTGGCTGAGGATCGATC (ssDNA) [AMX(399)_D8], for which the binding signal was 22.2 % bound in data set [1] and 19.6 % bound in data set [2].
For the molecule TCCCATCGATACGGGGTGGAATCTTGGGGTGGGTGGCTGAGGATCGATC (ssDNA) [AMX(399)_E9], the binding signal came out at 14.8 % bound in data set [1] and 13.8 % bound in data set [2].
In the same order, the values of TCCCTCGATCTAAGGTGCTTTTAGTGGTTTGGGTGGCTGAGGATCGATC (ssDNA) [AMX(399)_D7] are 7.59 % bound and 24.9 % bound.
Turning to TCCCGAGCGATACTGCCTAGGTTGGGTAGGGTGGTGGCTGAGGATCGATC (ssDNA) [AMX(398)_D6 (ARC2026)], binding in data set [3] was characterised by a dissociation constant (Kd) of 0.29 nM.
Turning to TCCCATCGAGCCGGGTATGTTTCGTTGGGCTGGGTGGCTGAGGATCGATC (ssDNA) [AMX(399)_E5], the binding signal is 15 % bound in data set [1] and 12.5 % bound in data set [2].
In the same order, the values of TCCCGATTGTCATAGGTGGTTTGTCTGGGTAGGGTGGCTGAGGATCGATC (ssDNA) [AMX(399)_E10] are 29.8 % bound and 28.9 % bound.
On to TCCCATCGATCTGTGGTCTTTTTTGGTGTGGGTGGCTGAGGATCGATC (ssDNA) [AMX(399)_D12], for which the binding signal in data set [1] came out at 32.6 % bound; in data set [2], 32.2 % bound.
In the same order, the values of TCCCATCGATTTGTCCTCAGAGGTTGGCGTGGGTGGCTGAGGATCGATC (ssDNA) [AMX(399)_B12] are 24.2 % bound and 15.3 % bound.
In the same order, the values of TCCCGATTGATTCTGGGAGGTTTGGTTCTGGGTGGCTGAGGATCGATC (ssDNA) [AMX(399)_D4] are 10.4 % bound and 9.02 % bound.
In the case of TCCCATTGATCCGGGGTGGTTTTCTGGTTTGGGTGGCTGAGGATCGATC (ssDNA) [AMX(399)_B10], the binding signal was 24.4 % bound in data set [1] and 23.6 % bound in data set [2].
The matching figures for TCCCATCGATCTGTGGTGGTTTTGTGGTTTGGGTGGCTGAGGATCGATC (ssDNA) [AMX(399)_D10]: 38.8 % bound and 40.8 % bound.
The matching figures for TCCCTTGATCCGGTGGTAGTTTTATTGGTGCGGGTGGCTGAGGATCGATC (ssDNA) [AMX(398)_F6]: 23.9 % bound and 24.6 % bound.
Regarding TCCCGCATTGAATAGGACTCAGGGATGGTGTGGGTGGCTGAGGATCGATC (ssDNA) [AMX(399)_D6], the binding signal in data set [1] was determined as 22.7 % bound; in data set [2] it was 22 % bound.
On to TCCCGCGATCTCTGGGGTAACGTTTTGGTGTGGGTGGCTGAGGATCGATC (ssDNA) [AMX(399)_D3], for which the binding signal in data set [1] was determined as 21.7 % bound; in data set [2] it was 25.3 % bound.
For the molecule TCCCGATCGCTGTCCTAGGATGGGTAGGGTGGTGGCTGAGGATCGATC (ssDNA) [AMX(399)_D2], in data set [3], binding was characterised by a dissociation constant (Kd) of 1.33 nM. This lies in the single-digit nanomolar range.
In the case of TCCCAAGATCGGTACATACAGTGGGTGGTGAGGGTGGCTGAGGATCGATC (ssDNA) [AMX(395)_D11], in data set [3], the affinity, expressed as Kd, was 5.55 nM.
TCCCAGAGAGCCGGGGTATAATTGTGGTGTGGGTGGCTGAGGATCGATC (ssDNA) [AMX(399)_D11]: the binding signal in data set [1] amounted to 41.3 % bound; in data set [2], 39.5 % bound.
Consider TCCCGGGATCGAGTCCGATTAGGGATGGTGTGGGTGGCTGAGGATCGATC (ssDNA) [AMX(395)_B7], for which the Kd in data set [3] was 14.5 nM.
On to TCTCATTCGTTCCGGGGTATTTAGTGGGTCGGGTGGCTGAGGATCGATC (ssDNA) [AMX(399)_C10], for which the binding signal in data set [1] stood at 35.4 % bound; in data set [2], 34.3 % bound.
For TCCCATCGAACCGCGGGTAATCTTATGGGTCGGGTGGCTGAGGATCGATC (ssDNA) [AMX(399)_E4], the binding signal in data set [1] stood at 7.5 % bound; in data set [2] it was 7.29 % bound.
With TCCCGATTTCGATTCTGGTAGTGTTTTCTGGGTGGCTGAGGATCGATC (ssDNA) [AMX(399)_E3], the figures for the binding signal in data set [1] and in data set [2] were 13 % bound and 13.3 % bound, respectively.
As for TCCCGAGTGATCCGGGGTGTTTTTTTGGGTTGGGTGGCTGAGGATCGATC (ssDNA) [AMX(398)_E3], the affinity in data set [3], expressed as Kd, was 0.89 nM. In addition, the binding signal in data set [2] stood at 47.5 % bound.
As to TCCCGATCGAGAGTGGTATTTGTTTTCTGGGTGGCTGAGGATCGATC (ssDNA) [AMX(398)_F5], the values for the binding signal in data set [1] and in data set [2] were 21.3 % bound and 19.4 % bound, respectively.
The matching figures for TTCCTGTCGATAAGGGGTATTATAGTGGTGTGGGTGGCTGAGGATCGATC (ssDNA) [AMX(399)_C9]: 11.2 % bound and 10.9 % bound.
The matching figures for TCCCGTCGATCAGGGGTAATTTGCTGGTGGTGGGTGGCTGAGGATCGATC (ssDNA) [AMX(399)_C8]: 36.8 % bound and 33.8 % bound.
The matching figures for TCCCGTCGATTCGGTATGGTTTCGTTTCTGGGTGGCTGAGGATCGATC (ssDNA) [AMX(399)_B11]: 18.7 % bound and 18.2 % bound.

B1: AMX(395)_A4 (ssDNA)
DNA: TCCCGGGAGATCGCTTCGAAAATGGTTGGCGTGGGTGGCTGAGGATCGATC
As for B1, the Kd in data set [3] turned out to be 29.4 nM.
As to TCCCGGATCTGTGGTAGGTTTGTTGGGTTGGGTGGCTGAGGATCGATC (ssDNA) [AMX(398)_E12], the binding signal in data set [1] stood at 40.4 % bound; in data set [2], 39.9 % bound.
In the same order, the values of TCCCACGATCCGGGGTGTCTTTCGTGGGCTGGGTGGCTGAGGATCGATC (ssDNA) [AMX(399)_E1] are 37.6 % bound and 39.1 % bound.
On to TCCCATCGAGTCGTGGTGTTTTGTTGGCCTGGGTGGCTGAGGATCGATC (ssDNA) [AMX(398)_F2], for which the figures for the binding signal in data set [1] and in data set [2] were 8.76 % bound and 8.81 % bound, respectively.
With TCCCAGGATCGATTCTGGTATTGTTGGTGGGGGTGGCTGAGGATCGATC (ssDNA) [AMX(399)_D9], the binding signal in data set [1] worked out at 20.3 % bound; in data set [2], 19.7 % bound.
